From patent US20230039487A1 (published 2023)

B1: hu VH2-VL1 (antibody, V domains shown)
VH: QVQLVQSGAEVKKPGASVKMSCKASGYTFTSYVVHWVRQAPGQGLEWIGYIIPYNDDTKYNEKFKGRVTLTSDKSTSTAYMELSSLRSEDTAVYYCARWDYDDGYFDYWGQGTTVTVSS
VL: DVVMTQSPLSLPVTLGQPASISCRSSQSLLHSNGNTYLHWYLQKPGQSPQLLIYKVSNRFSGVPDRFSGSGSGTDFTLKISRVEAEDVGVYFCSQITHIPFTFGQGTKLEIK
B2: hu VH1-VL1 (antibody, V domains shown)
VH: QVQLVQSGAEVKKPGASVKMSCKASGYTFTSYVVHWVRQAPGQGLEWIGYIIPYNDDTKYNEKFKGKATLTSDKSSSTAYMELSSLRSEDTAVYYCARWDYDDGYFDYWGQGTTVTVSS
VL: DVVMTQSPLSLPVTLGQPASISCRSSQSLLHSNGNTYLHWYLQKPGQSPQLLIYKVSNRFSGVPDRFSGSGSGTDFTLKISRVEAEDVGVYFCSQITHIPFTFGQGTKLEIK
B3: hu VH1-VL2 (antibody, V domains shown)
VH: QVQLVQSGAEVKKPGASVKMSCKASGYTFTSYVVHWVRQAPGQGLEWIGYIIPYNDDTKYNEKFKGKATLTSDKSSSTAYMELSSLRSEDTAVYYCARWDYDDGYFDYWGQGTTVTVSS
VL: DVVMTQTPLSLSVTPGQPASISCKSSQSLLHSNGNTYLHWYLQKPGQSPQLLIYKVSNRFSGVPDRFSGSGSGTDFTLKISRVEAEDVGVYFCSQITHIPFTFGQGTKLEIK
B4: hu VH1-VL3 (antibody, V domains shown)
VH: QVQLVQSGAEVKKPGASVKMSCKASGYTFTSYVVHWVRQAPGQGLEWIGYIIPYNDDTKYNEKFKGKATLTSDKSSSTAYMELSSLRSEDTAVYYCARWDYDDGYFDYWGQGTTVTVSS
VL: DIVMTQTPLSLSVTPGQPASISCKSSQSLLHSNGNTYLHWYLQKPGQPPQLLIYKVSNRFSGVPDRFSGSGSGTDFTLKISRVEAEDVGVYYCSQITHIPFTFGQGTKLEIKR
B5: 5E2 (antibody, V domains shown)
VH: EVQLQQSGPELIKPGASVKMSCKASGYTFTSYVVHWVKQKPGQGLEWIGYIIPYNDDTKYNEKFKGKATLTSDKSSSTAYMELSSLTSEDSAVYYCARWDYDDGYFDYWGQGTTLTVSS
VL: DVVMTQTPLSLPVTLGDQASISCRSSQSLLHSNGNTYLHWYLQKPGQSPKLLIYKVSNRFSGVPDRFSGSGSGTDFTLKISRVEAEDLGVYFCSQITHIPFTFGSGTKLEIKR
B6: 5F4 (antibody, V domains shown)
VH: EVQLQQSGPELIKPGASVKMSCKASAGKWERWAHWVKQKPGQGLEWIGYKPAYWTSAYNEKFKGKATLTSDKSSSTAYMELSSLTSEDSAVYYCATLDYDDGYFDYWGQGTTLTVSS
VL: EIVLTQSPGTLSLSPGERATLSCRASQSVSSSYLAWYQQKPGQAPRLLIYQASSDATGIPDRFSGSGSGTDFTLTISRLEPEDFAVYYCQQYGYPPSYTFGQGTKVEIK
B7: R0317 (C11D5.3 BCMA mouse monoclonal antibody) (antibody, V domains shown)
VH: QIQLVQSGPELKKPGETVKISCKASGYTFTDYSINWVKRAPGKGLKWMGWINTETREPAYAYDFRGRFAFSLETSASTAYLQINNLKYEDTATYFCALDYSYAMDYWGQGTSVTVSS
VL: DIVLTQSPASLAMSLGKRATISCRASESVSVIGAHLIHWYQQKPGQPPKLLIYLASNLETGVPARFSGSGSGTDFTLTIDPVEEDDVAIYSCLQSRIFPRTFGGGTKLEIK

Assays:
[1] = target: T1, hu (human) BCMA ECD His (ACRO, BCA-H522y) (human, UniProt Q02223 1-54); assay: ELISA
T1 chain: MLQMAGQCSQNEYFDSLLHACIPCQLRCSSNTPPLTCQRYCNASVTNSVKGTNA

[2] = target: T2, hBCMA ECD hFc (ACRO, BC7-H5254) (human, UniProt Q02223 1-54); assay: ELISA
T2 chain: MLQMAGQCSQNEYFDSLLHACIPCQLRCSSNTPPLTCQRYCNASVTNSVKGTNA

[3] = target: T2, hBCMA ECD hFc (ACRO, BC7-H5254); assay: BLI (Fortebio)

Binder	EC50 [1] [nM]	EC50 [2] [nM]	Kd [3] [nM]
B1	0.0506	–	–
B2	0.0474	–	–
B3	0.0206	–	–
B4	0.0545	–	–
B5	0.054	0.279	< 0.001
B6	–	0.305	< 0.001
B7	–	0.32	< 0.001
